Data on one molecule can be found in patent US20250277031A1 (BEIJING HANMI PHARMACEUTICAL, published 2025).

The target of experiment [1] is T1, recombinant mouse CD47 (mouse, UniProt Q61735 19-140, limits assumed).
T1 sequence (looked up): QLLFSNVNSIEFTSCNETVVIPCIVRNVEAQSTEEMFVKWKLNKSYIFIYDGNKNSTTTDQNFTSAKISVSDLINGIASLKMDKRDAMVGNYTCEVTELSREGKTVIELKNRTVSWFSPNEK
Nature of the experiment: ELISA, plate coated with 1 µg/mL recombinant mouse CD47, anti-human IgG-HRP, OD450. On the procedure:
(§1) Species specificity of the chimeric anti-human CD47 mAbs was determined by ELISA. A 96-well high-adsorption ELISA plate was coated with 1 μg/mL of the recombinant human CD47, cynomolgus CD47, rat CD47 and mouse CD47, at 100 μL per well using carbonate buffer solution, pH=9.6 at 4° C. overnight. The plate was washed 5 times with PBST, and then blocked using PBST with 1% BSA, 300 μL/well, and incubated at 25° C. for 1 hour, and then washed 5 times with PBST. The chimeric anti-human CD47 antibody samples serially diluted in PBST with 1% BSA were added, 100 μL/well, incubated at 25° C. for 1 hour, and then washed 5 times with PBST. The horseradish peroxidase-labeled anti-human IgG antibody (Chemicon, catalog number AP309P) diluted 1:10000 in PBST with 1% BSA was then added, 100 μL per well, and incubated at 25° C. for 1 hour. The plate was washed 5 times with PBST. The colorimetric substrate TMB was added, 100 μL/well, and developed at room temperature for 10 minutes. 1M H₂SO₄ was added, 100 μL/well, to stop the development. The absorbance at 450 nm was read on a microplate reader.
(In general: An ELISA detects its analyte on a solid surface through an enzyme-linked reagent.)

For experiment [2], the target named is T2, recombinant rat CD47 (rat, UniProt P97829 19-140, limits assumed).
T2 sequence (looked up): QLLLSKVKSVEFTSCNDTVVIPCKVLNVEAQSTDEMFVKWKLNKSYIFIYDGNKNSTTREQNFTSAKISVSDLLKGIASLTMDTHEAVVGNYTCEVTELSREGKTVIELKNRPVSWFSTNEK
Nature of the experiment: ELISA, plate coated with 1 µg/mL recombinant rat CD47, anti-human IgG-HRP, OD450. Here is the method: as §1

B1: chimeric anti-human CD47 monoclonal antibody mAb-18-5 (antibody, human IgG1, kappa)
heavy: not shown
light: DIVMTQSQKFMSTSVGDRVSITCKASQNVRTSIAWYQQKSGQSPKTLIYLASNRHTGVPDRFTGSGSGTDFTLTISNVQSEDLADYFCLQHWNYPFTFGSGTKLEIKRTVAAPSVFIFPPSDEQLKSGTASVVCLLNNFYPREAKVQWKVDNALQSGNSQESVTEQDSKDSTYSLSSTLTLSKADYEKHKVYACEVTHQGLSSPVTKSFNRGEC
Regarding B1, the binding result in experiment [1] and in experiment [2] was “no binding (tested: about 20 nM)” each time.
